Laboratory results taken from article PMC7133768.
Substitutions are numbered along the chain they refer to. Numbers in names are those of the source.

B1: EgtBCth (Cabther_A1318) (Chloracidobacterium thermophilum B; A420Y/D52L) (protein)
chain: EAARSHPEPIQSGEVSDRKAWQRHYRAVRAVSEAICQPLETEDYVVQPMPLVSPPKWHLGHTSWFFETFILKSGLADYRPFHPRYDYIFNSYYEAVGARHPRPQRGLLTRPTVSEVYAYRAHVDAAVERFIAHSDTRTWAALQPILELGLHHEQQHQELLLTDIKAILATNPLDPVYRPQPQPLPSPVEQLSPTGDWHIVEGGRYAIGHAGRGFAFDNEGPRHDVLLRPCRIAARPVTNGEFLAFMADGGYRRPELWLSDGWAAVTARGWEAPLYWRQAADGTWETLTLHGVQPVAPYEPVCHISFYEADAYARWAGKRLPTEAEWEVVAARLPVTGNFYESGVLHPRPVSVSAAFYGDVWVWTASPYVGYPGFRPVSGALGEYNGKFMCNQMVLRGGSCATSLTHIRSTYRNFFPPDYRWQFTGVRLAEDMS
B2: EgtBCth (Cabther_A1318) (Chloracidobacterium thermophilum B; D52L) (protein)
chain: B1 chain with Y419A
B3: EgtBCth (Cabther_A1318) (Chloracidobacterium thermophilum B) (protein)
chain: B1 chain with L51D, Y419A
B4: EgtBCth (Cabther_A1318) (Chloracidobacterium thermophilum B; A420Y) (protein)
chain: B1 chain with L51D

How the values were obtained:
Assay in all cases: oxygen consumption assay
Assay type in all cases: biochemical, Chloracidobacterium thermophilum
oxygen consumption assay [1] = substrate: C[N+](C)(C)[C@@H](Cc1cnc[nH]1)C(=O)[O-]; conditions: co-substrate L-Cys
oxygen consumption assay [2] = substrate: N[C@@H](CS)C(=O)O; conditions: co-substrate hercynine
oxygen consumption assay [3] = substrate: N[C@@H](CCC(=O)N[C@@H](CS)C(=O)O)C(=O)O; conditions: co-substrate hercynine

Protein	Km (oxygen consumption assay [1]) [µM]	kcat (oxygen consumption assay [1]) [s⁻¹]	kcat/Km (oxygen consumption assay [1]) [M⁻¹ s⁻¹]	Km (oxygen consumption assay [2]) [µM]	kcat (oxygen consumption assay [2]) [s⁻¹]	kcat/Km (oxygen consumption assay [2]) [M⁻¹ s⁻¹]	Km (oxygen consumption assay [1]; Fe(II) enzyme) [µM]	kcat/Km (oxygen consumption assay [3]) [M⁻¹ s⁻¹]
B1	23.3 ± 1.2	0.545 ± 0.005	23300 ± 1170	48.7 ± 3.5	0.545 ± 0.005	11200 ± 667	–	–
B2	13.2 ± 1.3	–	–	47.3 ± 2.4	–	–	–	–
B3	–	–	–	205 ± 18	–	2170 ± 167	87.7 ± 7.6	50 ± 8.33
B4	39.2 ± 1.6	–	11700 ± 500	28.1 ± 1.8	–	16300 ± 1000	–	–
